According to paper PMC13147308, “Investigating the molecular mechanisms underlying the anti‐CRISPR function of AcrIIA13b protein”:

Target: T1, AcrIIA13b (shAcrIIA13b) (Staphylococcus haemolyticus, UniProt A0AAX7FLQ9 1-129)
T1 sequence: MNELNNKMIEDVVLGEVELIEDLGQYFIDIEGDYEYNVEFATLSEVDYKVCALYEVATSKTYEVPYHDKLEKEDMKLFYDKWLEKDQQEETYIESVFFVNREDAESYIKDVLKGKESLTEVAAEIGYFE
Assay: EMSA; no Cas9; Cas9 EMSA: 100 mM NaCl, 50 mM Tris/HCl pH 8.0, 100 ug/mL BSA, 37 C (AcrIIA13b step at RT); 99 nM SauCas9, 90 nM sgRNA, 1.4 nM DNA, 4% gel 0.5x TBE
Details: protein: recombinant; tags: C-terminal His6 (pET21a); a tag-free version also exists; chain copies: 2; label: none (SYBR Gold stain); single strand, sgRNA hairpins

B1: SauCas9 sgRNA (structured_RNA)
RNA: GCAGCUGAUCAGGAACAGCGGUUUUAGUACUCUGGAAACAGAAUCUACUAAAACAAGGCAAAAUGCCGUGUUUAUCUCGUCAACUUGUUGGCGAGAUUU
B1: no binding.
